Molecular target: wt HBc capsid like particles (Hepatitis B virus core protein) (Human Hepatitis B virus) (UniProt P03147)
Assay: cryo-EM structure

wt HBc capsid like particles (Hepatitis B virus core protein) (from UniProt P03147) (natural protein)
stoichiometry N: 240

From paper PMC8618838
